Experimental data published in the RNAGym collection of RNA variant scans (doi:10.1021/acssynbio.7b00057).

B1: Pistol ribozyme (parent)
chain: GGGUCGUUGUUCCAUAAUCGCGUGGAUAUGGCACGCAAGUUUCUACCGGGCACCGUAAAUGUCCGACUGGAGCCGUUCGGGCGGCUAUAAACAGACCUCAGGCCCGAAGCGUGGCGGCACCUGCCGCCGGUGGUAAAAAAGAUCGGAAGAGCACACGUCU

Variants of: B1
Assay: aptazyme ON/OFF ratio, guanine; higher = stronger switching; co-transcriptional cleavage with and without guanine

Row | Variant | aptazyme ON/OFF ratio
1 | GGGUCGAUCCACAAUAAUCGCGUGGAUAUGGCACGCAAGUUUCUACCGGGCACCGUAAAUGUCCGACUGGAGCCGUUCGGGCGGCUAUAAACAGACCUCAGGCCCGAAGCGUGGCGGCACCUGCCGCCGGUGGUAAAAAAGAUCGGAAGAGCACACGUCU [U7A G9C U10C U11A C13A] | 1.07
2 | GGGUCGAUCCACUAUAAUCGCGUGGAUAUGGCACGCAAGUUUCUACCGGGCACCGUAAAUGUCCGACUGGAGCCGUUCGGGCGGCUAUAAACAGACCUCAGGCCCGAAGCGUGGCGGCACCUGCCGCCGGUGGUAAAAAAGAUCGGAAGAGCACACGUCU [U7A G9C U10C U11A C13U] | 1.09
3 | GGGUCGAUCCACGAUAAUCGCGUGGAUAUGGCACGCAAGUUUCUACCGGGCACCGUAAAUGUCCGACUGGAGCCGUUCGGGCGGCUAUAAACAGACCUCAGGCCCGAAGCGUGGCGGCACCUGCCGCCGGUGGUAAAAAAGAUCGGAAGAGCACACGUCU [U7A G9C U10C U11A C13G] | 1.12
4 | GGGUCGAUCCCCGAUAAUCGCGUGGAUAUGGCACGCAAGUUUCUACCGGGCACCGUAAAUGUCCGACUGGAGCCGUUCGGGCGGCUAUAAACAGACCUCAGGCCCGAAGCGUGGCGGCACCUGCCGCCGGUGGUAAAAAAGAUCGGAAGAGCACACGUCU [U7A G9C U10C U11C C13G] | 1.01
5 | GGGUCGAUCCCCAAUAAUCGCGUGGAUAUGGCACGCAAGUUUCUACCGGGCACCGUAAAUGUCCGACUGGAGCCGUUCGGGCGGCUAUAAACAGACCUCAGGCCCGAAGCGUGGCGGCACCUGCCGCCGGUGGUAAAAAAGAUCGGAAGAGCACACGUCU [U7A G9C U10C U11C C13A] | 1.01
6 | GGGUCGAUCCCCUAUAAUCGCGUGGAUAUGGCACGCAAGUUUCUACCGGGCACCGUAAAUGUCCGACUGGAGCCGUUCGGGCGGCUAUAAACAGACCUCAGGCCCGAAGCGUGGCGGCACCUGCCGCCGGUGGUAAAAAAGAUCGGAAGAGCACACGUCU [U7A G9C U10C U11C C13U] | 1.03
7 | GGGUCGAUCCCGAAUAAUCGCGUGGAUAUGGCACGCAAGUUUCUACCGGGCACCGUAAAUGUCCGACUGGAGCCGUUCGGGCGGCUAUAAACAGACCUCAGGCCCGAAGCGUGGCGGCACCUGCCGCCGGUGGUAAAAAAGAUCGGAAGAGCACACGUCU [U7A G9C U10C U11C C12G C13A] | 1.06
8 | GGGUCGAUCCCGGAUAAUCGCGUGGAUAUGGCACGCAAGUUUCUACCGGGCACCGUAAAUGUCCGACUGGAGCCGUUCGGGCGGCUAUAAACAGACCUCAGGCCCGAAGCGUGGCGGCACCUGCCGCCGGUGGUAAAAAAGAUCGGAAGAGCACACGUCU [U7A G9C U10C U11C C12G C13G] | 1.09
9 | GGGUCGAUCCCGUAUAAUCGCGUGGAUAUGGCACGCAAGUUUCUACCGGGCACCGUAAAUGUCCGACUGGAGCCGUUCGGGCGGCUAUAAACAGACCUCAGGCCCGAAGCGUGGCGGCACCUGCCGCCGGUGGUAAAAAAGAUCGGAAGAGCACACGUCU [U7A G9C U10C U11C C12G C13U] | 1.02
10 | GGGUCGAUCCCCCAUAAUCGCGUGGAUAUGGCACGCAAGUUUCUACCGGGCACCGUAAAUGUCCGACUGGAGCCGUUCGGGCGGCUAUAAACAGACCUCAGGCCCGAAGCGUGGCGGCACCUGCCGCCGGUGGUAAAAAAGAUCGGAAGAGCACACGUCU [U7A G9C U10C U11C] | 0.989
11 | GGGUCGAUCCGCCAUAAUCGCGUGGAUAUGGCACGCAAGUUUCUACCGGGCACCGUAAAUGUCCGACUGGAGCCGUUCGGGCGGCUAUAAACAGACCUCAGGCCCGAAGCGUGGCGGCACCUGCCGCCGGUGGUAAAAAAGAUCGGAAGAGCACACGUCU [U7A G9C U10C U11G] | 1.02
12 | GGGUCGAUCCCAUAUAAUCGCGUGGAUAUGGCACGCAAGUUUCUACCGGGCACCGUAAAUGUCCGACUGGAGCCGUUCGGGCGGCUAUAAACAGACCUCAGGCCCGAAGCGUGGCGGCACCUGCCGCCGGUGGUAAAAAAGAUCGGAAGAGCACACGUCU [U7A G9C U10C U11C C12A C13U] | 1.02
13 | GGGUCGAUCCCAAAUAAUCGCGUGGAUAUGGCACGCAAGUUUCUACCGGGCACCGUAAAUGUCCGACUGGAGCCGUUCGGGCGGCUAUAAACAGACCUCAGGCCCGAAGCGUGGCGGCACCUGCCGCCGGUGGUAAAAAAGAUCGGAAGAGCACACGUCU [U7A G9C U10C U11C C12A C13A] | 1.02
14 | GGGUCGAUCCCAGAUAAUCGCGUGGAUAUGGCACGCAAGUUUCUACCGGGCACCGUAAAUGUCCGACUGGAGCCGUUCGGGCGGCUAUAAACAGACCUCAGGCCCGAAGCGUGGCGGCACCUGCCGCCGGUGGUAAAAAAGAUCGGAAGAGCACACGUCU [U7A G9C U10C U11C C12A C13G] | 1.03
15 | GGGUCGAUCCAGGAUAAUCGCGUGGAUAUGGCACGCAAGUUUCUACCGGGCACCGUAAAUGUCCGACUGGAGCCGUUCGGGCGGCUAUAAACAGACCUCAGGCCCGAAGCGUGGCGGCACCUGCCGCCGGUGGUAAAAAAGAUCGGAAGAGCACACGUCU [U7A G9C U10C U11A C12G C13G] | 1.16
16 | GGGUCGAUCCAGUAUAAUCGCGUGGAUAUGGCACGCAAGUUUCUACCGGGCACCGUAAAUGUCCGACUGGAGCCGUUCGGGCGGCUAUAAACAGACCUCAGGCCCGAAGCGUGGCGGCACCUGCCGCCGGUGGUAAAAAAGAUCGGAAGAGCACACGUCU [U7A G9C U10C U11A C12G C13U] | 1.25
17 | GGGUCGAUCCAGAAUAAUCGCGUGGAUAUGGCACGCAAGUUUCUACCGGGCACCGUAAAUGUCCGACUGGAGCCGUUCGGGCGGCUAUAAACAGACCUCAGGCCCGAAGCGUGGCGGCACCUGCCGCCGGUGGUAAAAAAGAUCGGAAGAGCACACGUCU [U7A G9C U10C U11A C12G C13A] | 1.16
18 | GGGUCGAUCCAGCAUAAUCGCGUGGAUAUGGCACGCAAGUUUCUACCGGGCACCGUAAAUGUCCGACUGGAGCCGUUCGGGCGGCUAUAAACAGACCUCAGGCCCGAAGCGUGGCGGCACCUGCCGCCGGUGGUAAAAAAGAUCGGAAGAGCACACGUCU [U7A G9C U10C U11A C12G] | 1.1
